{
  "source": "the supplement of paper PMC10567573",
  "parents": {"B1": {"name": "VTI1B (parent)", "chain": "ANETLAEMEEELRYAPLSFRNPMM"}},
  "data": [
    {"variants_of": "B1", "assay": "protein stability index of a GFP-peptide fusion (GPS, HEK-293T) (PSI 1-6); higher = more stable", "details": "c terminus: a fixed tail appended", "values": [
      {"variant": "ANETLAEMEEELRYAPYSFRNPMM", "protein stability index": 3.41},
      {"variant": "ANETLAEMEEELRYAPHSFRNPMM", "protein stability index": 3.79},
      {"variant": "ANETLAHMEEELRYAPLSFRNPMM", "protein stability index": 2.2},
      {"variant": "ANETLARMEEELRYAPLSFRNPMM", "protein stability index": 1.17},
      {"variant": "ANETLAWMEEELRYAPLSFRNPMM", "protein stability index": 1.57},
      {"variant": "ANETLAEMEEELRYAPLWFRNPMM", "protein stability index": 3.98},
      {"variant": "ANETLAEMEEELRYAPLMFRNPMM", "protein stability index": 2.81},
      {"variant": "ANETLAEMEEELRYAPLQFRNPMM", "protein stability index": 3.35},
      {"variant": "ANETLAEMEEELRYAPLGFRNPMM", "protein stability index": 3.19},
      {"variant": "ANETLAEMEEELRYAYLSFRNPMM", "protein stability index": 2.36},
      {"variant": "ANETLAEMEEELRYAALSFRNPMM", "protein stability index": 2.26},
      {"variant": "ANETLAEMEEELRYANLSFRNPMM", "protein stability index": 3.15},
      {"variant": "ANETLAEREEELRYAPLSFRNPMM", "protein stability index": 2.46},
      {"variant": "ANETLAEPEEELRYAPLSFRNPMM", "protein stability index": 3.11},
      {"variant": "ANETLAEFEEELRYAPLSFRNPMM", "protein stability index": 2.51},
      {"variant": "ANETLAEGEEELRYAPLSFRNPMM", "protein stability index": 3.19},
      {"variant": "ANETLAEMEEELRYAPLSFREPMM", "protein stability index": 3.95},
      {"variant": "ANETLAEMEEELRYAPLSFRKPMM", "protein stability index": 3.61},
      {"variant": "ANETLAEMEEELRYAPLSFRWPMM", "protein stability index": 2.21},
      {"variant": "ANETLAEMEEELRYAPLSFRDPMM", "protein stability index": 3.12},
      {"variant": "ANETLAEMEEELRYAPLSFRFPMM", "protein stability index": 3.35},
      {"variant": "ANETLAEMEEELRYAPLSFRIPMM", "protein stability index": 2.92},
      {"variant": "ANETLAEMEEELRYAPLSFRHPMM", "protein stability index": 3.42},
      {"variant": "ANETLAEMEEELRYAPLSFRYPMM", "protein stability index": 3.39},
      {"variant": "ANETLAEMEEELYYAPLSFRNPMM", "protein stability index": 1.64},
      {"variant": "ANETLAEMEEELTYAPLSFRNPMM", "protein stability index": 1.42},
      {"variant": "ANETLAEMEEELDYAPLSFRNPMM", "protein stability index": 3.02},
      {"variant": "ANETLAEMEEELMYAPLSFRNPMM", "protein stability index": 2.29},
      {"variant": "ANETLAEMEEELCYAPLSFRNPMM", "protein stability index": 2.77},
      {"variant": "ANETLAEMEEELQYAPLSFRNPMM", "protein stability index": 2.37},
      {"variant": "QNETLAEMEEELRYAPLSFRNPMM", "protein stability index": 1.92},
      {"variant": "CNETLAEMEEELRYAPLSFRNPMM", "protein stability index": 2.39},
      {"variant": "GNETLAEMEEELRYAPLSFRNPMM", "protein stability index": 3.02},
      {"variant": "PNETLAEMEEELRYAPLSFRNPMM", "protein stability index": 2.37},
      {"variant": "ANETLAEMEAELRYAPLSFRNPMM", "protein stability index": 2.04},
      {"variant": "ANETLAEMEFELRYAPLSFRNPMM", "protein stability index": 2.75},
      {"variant": "ANETLAEMEVELRYAPLSFRNPMM", "protein stability index": 1.82},
      {"variant": "ANETGAEMEEELRYAPLSFRNPMM", "protein stability index": 2.58},
      {"variant": "ANETKAEMEEELRYAPLSFRNPMM", "protein stability index": 2.16},
      {"variant": "ANETRAEMEEELRYAPLSFRNPMM", "protein stability index": 2.14},
      {"variant": "ANETLAEMEEELRYQPLSFRNPMM", "protein stability index": 1.67},
      {"variant": "ANETLAEMEEELRYFPLSFRNPMM", "protein stability index": 1.39},
      {"variant": "ANETLAEMEEELRYEPLSFRNPMM", "protein stability index": 3.56},
      {"variant": "ANETLAEMEEELRYLPLSFRNPMM", "protein stability index": 2.03},
      {"variant": "ANETLAEMEEELRYVPLSFRNPMM", "protein stability index": 3.98},
      {"variant": "ANETLAEMEEELRYMPLSFRNPMM", "protein stability index": 1.53},
      {"variant": "ANETLAEMEEELRHAPLSFRNPMM", "protein stability index": 1.7},
      {"variant": "ANETLAEMEEELRWAPLSFRNPMM", "protein stability index": 1.32},
      {"variant": "ANETLAEMEEELRSAPLSFRNPMM", "protein stability index": 1.94},
      {"variant": "ANETLAEMEEELRYAPLSIRNPMM", "protein stability index": 3.73},
      {"variant": "ANKTLAEMEEELRYAPLSFRNPMM", "protein stability index": 2.85},
      {"variant": "ANLTLAEMEEELRYAPLSFRNPMM", "protein stability index": 1.38},
      {"variant": "ANDTLAEMEEELRYAPLSFRNPMM", "protein stability index": 2.97},
      {"variant": "ANETLAEMEEEIRYAPLSFRNPMM", "protein stability index": 2.99},
      {"variant": "ANETLAEMEEEYRYAPLSFRNPMM", "protein stability index": 4.21},
      {"variant": "ANETLAEMHEELRYAPLSFRNPMM", "protein stability index": 3.27},
      {"variant": "ANETLAEMPEELRYAPLSFRNPMM", "protein stability index": 3.22},
      {"variant": "ANETLAEMAEELRYAPLSFRNPMM", "protein stability index": 2.44},
      {"variant": "ANETLAEMREELRYAPLSFRNPMM", "protein stability index": 1.4},
      {"variant": "ANETLAEMIEELRYAPLSFRNPMM", "protein stability index": 3.61},
      {"variant": "ANETLAEMEEELRYAPLSFRNWMM", "protein stability index": 3.03},
      {"variant": "ANETLAEMEEELRYAPLSFRNGMM", "protein stability index": 3.58},
      {"variant": "AYETLAEMEEELRYAPLSFRNPMM", "protein stability index": 2.05},
      {"variant": "ATETLAEMEEELRYAPLSFRNPMM", "protein stability index": 2.19},
      {"variant": "AWETLAEMEEELRYAPLSFRNPMM", "protein stability index": 1.06},
      {"variant": "ACETLAEMEEELRYAPLSFRNPMM", "protein stability index": 2.13},
      {"variant": "ANETLAEMEEELRYAPLSFRNPMN", "protein stability index": 3.2},
      {"variant": "ANEHLAEMEEELRYAPLSFRNPMM", "protein stability index": 1.83},
      {"variant": "ANEVLAEMEEELRYAPLSFRNPMM", "protein stability index": 1.9},
      {"variant": "ANEELAEMEEELRYAPLSFRNPMM", "protein stability index": 3.26},
      {"variant": "ANEGLAEMEEELRYAPLSFRNPMM", "protein stability index": 2.39},
      {"variant": "ANECLAEMEEELRYAPLSFRNPMM", "protein stability index": 1.69},
      {"variant": "ANEILAEMEEELRYAPLSFRNPMM", "protein stability index": 2.4},
      {"variant": "ANEYLAEMEEELRYAPLSFRNPMM", "protein stability index": 1.23},
      {"variant": "ANETLAEMEEELRYAPLSFCNPMM", "protein stability index": 2.35},
      {"variant": "ANETLAEMEEELRYAPLSFFNPMM", "protein stability index": 2.63},
      {"variant": "ANETLAEMEEELRYAPLSFENPMM", "protein stability index": 2.58},
      {"variant": "ANETLAEMEEELRYAPLSFHNPMM", "protein stability index": 1.7},
      {"variant": "ANETLAEMEEELRYAPLSFPNPMM", "protein stability index": 3.62},
      {"variant": "ANETLAEMEEELRYAPLSFANPMM", "protein stability index": 2.25},
      {"variant": "ANETLNEMEEELRYAPLSFRNPMM", "protein stability index": 2.75},
      {"variant": "ANETLVEMEEELRYAPLSFRNPMM", "protein stability index": 2.16},
      {"variant": "ANETLHEMEEELRYAPLSFRNPMM", "protein stability index": 2.4},
      {"variant": "ANETLQEMEEELRYAPLSFRNPMM", "protein stability index": 2.79},
      {"variant": "ANETLKEMEEELRYAPLSFRNPMM", "protein stability index": 2.78},
      {"variant": "ANETLREMEEELRYAPLSFRNPMM", "protein stability index": 2.67},
      {"variant": "ANETLWEMEEELRYAPLSFRNPMM", "protein stability index": 2.05},
      {"variant": "ANETLDEMEEELRYAPLSFRNPMM", "protein stability index": 3.76},
      {"variant": "ANETLAEMEESLRYAPLSFRNPMM", "protein stability index": 3.02},
      {"variant": "ANETLAEMEEWLRYAPLSFRNPMM", "protein stability index": 1.55},
      {"variant": "ANETLAEMEENLRYAPLSFRNPMM", "protein stability index": 2.81},
      {"variant": "ANETLAEMEEDLRYAPLSFRNPMM", "protein stability index": 2.13},
      {"variant": "ANETLAEMEEELRYAPLSFRNPVM", "protein stability index": 1.83},
      {"variant": "ANETLAEMEEELRYAPLSFRNPSM", "protein stability index": 3.62}
    ]}
  ]
}
